Common to all, as to assay: SPR
The target in data set [1] is T1, MutS D835R (Escherichia coli, UniProt P23909 1-853, D835R).
T1 sequence: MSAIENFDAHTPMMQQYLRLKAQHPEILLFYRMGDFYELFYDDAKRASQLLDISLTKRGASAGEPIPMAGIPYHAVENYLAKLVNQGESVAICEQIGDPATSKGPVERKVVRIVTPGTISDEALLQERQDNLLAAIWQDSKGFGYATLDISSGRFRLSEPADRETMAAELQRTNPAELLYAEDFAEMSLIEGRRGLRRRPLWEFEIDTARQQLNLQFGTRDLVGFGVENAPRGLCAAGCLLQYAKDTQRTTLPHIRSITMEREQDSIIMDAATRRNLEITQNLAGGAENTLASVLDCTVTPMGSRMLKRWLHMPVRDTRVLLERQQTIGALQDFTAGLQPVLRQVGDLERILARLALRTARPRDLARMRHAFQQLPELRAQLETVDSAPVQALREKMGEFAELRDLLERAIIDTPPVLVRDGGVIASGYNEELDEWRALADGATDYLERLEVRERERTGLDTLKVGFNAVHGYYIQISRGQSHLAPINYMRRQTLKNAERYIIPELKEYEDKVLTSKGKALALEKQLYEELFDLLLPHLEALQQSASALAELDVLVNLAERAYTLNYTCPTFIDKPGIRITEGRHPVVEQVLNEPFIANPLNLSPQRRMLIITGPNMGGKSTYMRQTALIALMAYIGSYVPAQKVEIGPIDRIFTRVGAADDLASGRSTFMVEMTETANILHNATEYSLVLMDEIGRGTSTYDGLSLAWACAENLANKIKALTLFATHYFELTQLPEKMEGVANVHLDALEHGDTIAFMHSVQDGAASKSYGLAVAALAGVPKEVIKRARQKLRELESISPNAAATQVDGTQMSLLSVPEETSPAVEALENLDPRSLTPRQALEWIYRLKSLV

Data set [2] concerns the target MSH2 WT (MutSα);MSH6 WT (MutSα) (human;human, UniProt P43246;P52701 1-934;1-1360, |).
For data set [3], the target named is MSH2 dMBD2;MSH6 WT (MutSα) (human;human, UniProt P43246;P52701 125-934;1-1360, |).
The target in data set [4] is MSH2 del2-7;MSH6 WT (MutSα) (human;human, UniProt P43246;P52701 1-934;1-1360, del2-7|).
The target of data set [5] is T2, MutS WT (Escherichia coli, UniProt P23909 1-853).
T2 sequence: T1 sequence with R835D

Substitutions are numbered along the chain they refer to.

B1: 21 bp GT mismatch (SPR) (dsDNA)
DNA 1: TTTTTTTTTTTTTTTTTTTTAGTCGCCAGGGACCAGTGTCA
DNA 2: TGACACTGGTCTCTGGCGACT
Consider B1, for which the Kd in data set [1] is 30.85 ± 0.08 nM; in data set [2], 1.08 ± 0.02 nM; in data set [3], 16.4 ± 0.86 nM; in data set [4], 3.28 ± 0.12 nM. Besides, the binding result in data set [5] is listed as “binds”.

One may read the Kd as a measure of binding affinity in units of concentration. High values mean a looser complex, low ones a tighter complex.

The values are drawn from publication PMC9943660.
